{
  "source": "patent US10512676B2",
  "about": "“Formulations comprising recombinant acid alpha-glucosidase” (Amicus Therapeutics, Inc., priority 2016, dated 2019)",
  "key": {"[1]": {"system": "Pompe fibroblasts and skeletal muscle myoblasts", "experiment": "Internalization by Pompe fibroblasts and skeletal muscle myoblasts", "assay_type": "cell-based"}, "[2]": {"experiment": "Flocculation study: test article mixed with equal volume of saline (macro, micro, pellet)", "set-up": "key: 0=negative; 1=very slight precipitation or pellet; 2=minimal precipitation or pellet; 3=moderate precipitation or pellet; 4=significant precipitation or pellet", "description": "(§1) Test article dosing solutions (3 concentrations) and the placebo (3 concentrations) were mixed with equal volumes of human plasma and serum from a donor. […] The placebo was the same as the test article except there was no ATB200 rhGAA.\n(§2) One ml of each dose of test article or placebo, was mixed with an equal volume of plasma, serum and saline. Samples were incubated for 30 minutes at room temperature. After incubation the tubes were examined macroscopically and microscopically for precipitation or coagulation. An aliquot from each tube was centrifuged at 14,000 rpm in a microcentrifuge for 10 minutes. Each tube was examined for the presence or absence of a pellet. Precipitation/coagulation and pellets were scored as follows: • 0=negative • 1=very slight precipitation or pellet • 2=minimal precipitation or pellet • 3=moderate precipitation or pellet • 4=significant precipitation or pellet"}, "[3]": {"experiment": "Flocculation in human serum", "set-up": "key to Serum Macro (precipitation/coagulation score) / Serum Micro (precipitation/coagulation score) / Serum Pellet (score): 0=negative; 1=very slight precipitation or pellet; 2=minimal precipitation or pellet; 3=moderate precipitation or pellet; 4=significant precipitation or pellet", "description": "as §1, §2"}, "[4]": {"target": "CIMPR (Homo sapiens, UniProt P11717)", "sequence (P11717 41-2491, species assumed)": "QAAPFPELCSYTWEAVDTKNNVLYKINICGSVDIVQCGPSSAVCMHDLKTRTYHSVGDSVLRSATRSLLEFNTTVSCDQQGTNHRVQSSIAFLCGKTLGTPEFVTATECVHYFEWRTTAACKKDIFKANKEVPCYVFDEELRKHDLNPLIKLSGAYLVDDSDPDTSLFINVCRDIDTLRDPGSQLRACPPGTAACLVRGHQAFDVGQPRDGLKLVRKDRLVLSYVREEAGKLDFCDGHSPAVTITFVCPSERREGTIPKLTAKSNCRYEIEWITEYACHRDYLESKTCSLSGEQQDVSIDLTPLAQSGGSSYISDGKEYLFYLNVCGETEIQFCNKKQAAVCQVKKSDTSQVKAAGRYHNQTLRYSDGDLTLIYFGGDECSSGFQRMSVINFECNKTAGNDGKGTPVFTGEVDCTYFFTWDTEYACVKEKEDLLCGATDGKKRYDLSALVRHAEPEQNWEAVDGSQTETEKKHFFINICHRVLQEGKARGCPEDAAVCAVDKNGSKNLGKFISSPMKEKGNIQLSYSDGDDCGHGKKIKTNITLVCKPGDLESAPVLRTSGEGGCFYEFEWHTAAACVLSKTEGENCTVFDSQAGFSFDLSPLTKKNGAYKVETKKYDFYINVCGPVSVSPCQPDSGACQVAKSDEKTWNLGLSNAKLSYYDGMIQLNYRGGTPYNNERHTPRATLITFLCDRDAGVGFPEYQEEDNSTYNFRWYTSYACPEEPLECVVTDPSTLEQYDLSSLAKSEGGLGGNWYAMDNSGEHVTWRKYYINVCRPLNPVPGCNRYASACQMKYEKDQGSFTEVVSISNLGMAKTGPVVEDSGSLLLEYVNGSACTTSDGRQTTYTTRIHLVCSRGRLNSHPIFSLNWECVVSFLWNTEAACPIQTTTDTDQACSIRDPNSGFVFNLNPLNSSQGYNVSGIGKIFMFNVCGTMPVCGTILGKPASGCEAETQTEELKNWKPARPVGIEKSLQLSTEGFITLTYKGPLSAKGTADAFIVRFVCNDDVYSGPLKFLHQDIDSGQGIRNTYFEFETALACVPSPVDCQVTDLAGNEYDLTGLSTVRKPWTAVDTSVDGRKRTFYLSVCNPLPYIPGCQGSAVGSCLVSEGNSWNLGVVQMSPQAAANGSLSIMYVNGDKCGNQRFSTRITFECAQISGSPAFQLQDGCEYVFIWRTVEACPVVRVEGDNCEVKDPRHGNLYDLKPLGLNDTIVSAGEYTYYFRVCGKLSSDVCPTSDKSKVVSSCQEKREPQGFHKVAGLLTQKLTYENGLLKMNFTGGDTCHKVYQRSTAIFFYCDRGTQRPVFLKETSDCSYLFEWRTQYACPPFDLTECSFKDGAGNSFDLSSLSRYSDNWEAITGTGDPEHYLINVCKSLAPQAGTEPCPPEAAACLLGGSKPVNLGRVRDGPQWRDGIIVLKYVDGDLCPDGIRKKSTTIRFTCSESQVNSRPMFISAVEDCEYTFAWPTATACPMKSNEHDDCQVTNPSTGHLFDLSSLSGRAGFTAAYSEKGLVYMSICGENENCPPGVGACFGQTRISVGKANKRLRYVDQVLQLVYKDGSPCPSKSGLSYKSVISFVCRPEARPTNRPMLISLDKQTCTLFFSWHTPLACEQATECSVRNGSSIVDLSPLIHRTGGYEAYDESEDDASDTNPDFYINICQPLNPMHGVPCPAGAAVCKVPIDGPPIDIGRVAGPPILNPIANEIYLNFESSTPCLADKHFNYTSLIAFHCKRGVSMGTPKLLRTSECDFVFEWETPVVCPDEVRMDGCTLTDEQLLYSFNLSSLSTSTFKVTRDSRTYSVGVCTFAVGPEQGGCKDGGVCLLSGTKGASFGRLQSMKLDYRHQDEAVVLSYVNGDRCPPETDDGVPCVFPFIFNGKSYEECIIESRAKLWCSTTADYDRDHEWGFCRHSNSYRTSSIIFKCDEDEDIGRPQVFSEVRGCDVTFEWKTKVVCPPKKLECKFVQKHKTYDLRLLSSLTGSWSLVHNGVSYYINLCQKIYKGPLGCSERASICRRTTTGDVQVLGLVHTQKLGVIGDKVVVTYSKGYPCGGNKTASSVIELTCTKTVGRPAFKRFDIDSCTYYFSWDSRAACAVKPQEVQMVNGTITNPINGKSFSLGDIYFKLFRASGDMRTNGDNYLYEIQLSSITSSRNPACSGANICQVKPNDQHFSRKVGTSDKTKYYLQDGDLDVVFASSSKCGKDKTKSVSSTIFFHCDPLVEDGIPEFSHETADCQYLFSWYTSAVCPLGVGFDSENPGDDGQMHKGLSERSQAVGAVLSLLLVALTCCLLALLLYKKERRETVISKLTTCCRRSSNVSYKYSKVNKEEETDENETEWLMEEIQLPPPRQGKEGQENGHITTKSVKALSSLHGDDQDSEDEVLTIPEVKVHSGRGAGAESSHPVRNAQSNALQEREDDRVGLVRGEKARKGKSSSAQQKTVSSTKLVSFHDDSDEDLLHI", "experiment": "CIMPR plate binding assay", "description": "In addition to having a greater percentage of rhGAA that can bind to the CIMPR, it is important to understand the quality of that interaction. […] Briefly, CIMPR-coated plates were used to capture GAA. Varying concentrations of rhGAA were applied to the immobilized receptor and unbound rhGAA was washed off. The amount of remaining rhGAA was determined by GAA activity."}, "[5]": {"system": "Gaa knockout mice", "experiment": "Glycogen reduction in Gaa-knockout mice", "assay_type": "in vivo, mouse", "source_text": "Animals were given two IV bolus administrations (every other week); tissues were harvested two weeks after the last dose and analyzed for acid α-glucosidase activity and glycogen content.\nTissues were collected 14 days after last enzyme dose for glycogen measurement."}, "[6]": {"system": "whole human blood", "experiment": "Hemolysis in whole human blood", "assay_type": "cell-based", "settings": "for percent hemolysis / OD540 With Blood / % Hemolysis: 1 hour at 37° C.; for % Hemolysis: water = 100%", "description": "A series of dilutions of blood (1:2, 1:3, 1:4, 1:5, and 1:10) from a human donor were prepared in saline. […] Four types of samples were tested: the test article, placebo, positive control and negative control. […] The placebo was the same as the test article except there was no ATB200 rhGAA.\nSamples were incubated without agitation for 1 hour at 37° C. After incubation, the tubes were centrifuged for 10 minutes at approximately 100× g at room temperature. The amount of hemoglobin in the supernatant of each sample was analyzed spectrophotometrically at 540 nm.\nThe percent hemolysis for the test article was determined by the formula: […]\nThe percent hemolysis of water plus blood is 100%. Saline was the negative control. Hemolysis less than or equal to 10% was considered insignificant. The percent hemolysis was calculated for each concentration of the test article and for the placebo."}, "[7]": {"system": "normal and Pompe fibroblast cell lines", "experiment": "Cellular uptake of rhGAA in normal and Pompe fibroblast cell lines", "assay_type": "cell-based", "description": "The relative cellular uptake of ATB200 and Lumizyme® rhGAA were compared using normal and Pompe fibroblast cell lines. […] After 16-hr incubation, external rhGAA was inactivated with TRIS base and cells were washed 3-times with PBS prior to harvest. Internalized GAA measured by 4MU-α-Glucoside hydrolysis and was graphed relative to total cellular protein and the results appear in FIGS. 11A-B."}, "[8]": {"experiment": "Apparent plasma half-life in vivo"}, "[9]": {"system": "Gaa knockout mice", "experiment": "Muscle physiology and morphology in Gaa-knockout mice (LAMP1, PAS, vacuoles)", "assay_type": "in vivo, mouse", "description": "Control mice were treated with vehicle alone. Soleus, quadriceps and diaphragm tissue is harvested two weeks after the last dose of recombinant human acid α-glucosidase. […] Semi-thin sections of quadriceps muscle embedded in epoxy resin (Epon) were stained with methylene blue and observed by […] (1000×) to determine the extent of the presence of vacuoles. Quadriceps muscle samples were analyzed immunohistochemically to determine levels of the autophagy markers microtubule-associated protein 1A/1B-light chain 3 phosphatidylethanolamine conjugate (LC3A II) and p62, the insulin-dependent glucose transporter GLUT4 and the insulin-independent glucose transporter GLUT1. […] Control mice were treated with vehicle alone. Cardiac muscle tissue was harvested two weeks after the last dose of recombinant human acid α-glucosidase and analyzed for glycogen levels, by staining with periodic acid—Schiff reagent (PAS), and for lysosome proliferation, by measuring levels of LAMPI."}, "[10]": {"system": "Gaa KO mice", "experiment": "Muscle function in Gaa-knockout mice, 12 biweekly administrations (grip strength, wire hang)", "assay_type": "in vivo, mouse", "settings": "6 months, with or without miglustat", "source_text": "In FIG. 18A, * indicates statistically significant compared to Lumizyme® alone (p<0.05, 2-sided t-test). In FIGS. 19A-19G, * indicates statistically significant compared to Lumizyme® alone (p<0.05, multiple comparison using Dunnett's method under one-way ANOVA analysis)."}},
  "data": [
    {"substance": "ATB200: recombinant human acid α-glucosidase expressed in CHO cells with increased content of M6P-bearing N-glycans", "values": [
      {"measurement": "Kuptake", "setting": "[1]", "value": "7 to 14", "unit": "nM"},
      {"measurement": "Saline Macro (precipitation/coagulation score)", "setting": "[2]; Final concentration 300 μg/mL", "value": 0},
      {"measurement": "Saline Micro (precipitation/coagulation score)", "setting": "[2]; Final concentration 300 μg/mL", "value": 0},
      {"measurement": "Saline Pellet (score)", "setting": "[2]; Final concentration 300 μg/mL", "value": 0},
      {"measurement": "Saline Macro (precipitation/coagulation score)", "setting": "[2]; Final concentration 600 μg/mL", "value": 0},
      {"measurement": "Saline Micro (precipitation/coagulation score)", "setting": "[2]; Final concentration 600 μg/mL", "value": 0},
      {"measurement": "Saline Pellet (score)", "setting": "[2]; Final concentration 600 μg/mL", "value": 0},
      {"measurement": "Saline Macro (precipitation/coagulation score)", "setting": "[2]; Final concentration 1000 μg/mL", "value": 0},
      {"measurement": "Saline Micro (precipitation/coagulation score)", "setting": "[2]; Final concentration 1000 μg/mL", "value": 0},
      {"measurement": "Saline Pellet (score)", "setting": "[2]; Final concentration 1000 μg/mL", "value": 0},
      {"measurement": "Serum Macro (precipitation/coagulation score)", "setting": "[3]; Final concentration 300 μg/mL", "value": 0},
      {"measurement": "Serum Micro (precipitation/coagulation score)", "setting": "[3]; Final concentration 300 μg/mL", "value": 0},
      {"measurement": "Serum Pellet (score)", "setting": "[3]; Final concentration 300 μg/mL", "value": 0},
      {"measurement": "Serum Macro (precipitation/coagulation score)", "setting": "[3]; Final concentration 600 μg/mL", "value": 0},
      {"measurement": "Serum Micro (precipitation/coagulation score)", "setting": "[3]; Final concentration 600 μg/mL", "value": 0},
      {"measurement": "Serum Pellet (score)", "setting": "[3]; Final concentration 600 μg/mL", "value": 0},
      {"measurement": "Serum Macro (precipitation/coagulation score)", "setting": "[3]; Final concentration 1000 μg/mL", "value": 0},
      {"measurement": "Serum Micro (precipitation/coagulation score)", "setting": "[3]; Final concentration 1000 μg/mL", "value": 0},
      {"measurement": "Serum Pellet (score)", "setting": "[3]; Final concentration 1000 μg/mL", "value": 0},
      {"measurement": "pellet after centrifugation", "setting": "[3]; human serum, 14,000 rpm 10 minutes", "value": "no pellets were observed"},
      {"measurement": "precipitation, macroscopic and microscopic", "setting": "[3]; human serum, each ATB200 concentration, 30 minutes at room temperature", "value": "No precipitation was observed macroscopically or microscopically"},
      {"measurement": "Kd", "setting": "[4]; binding to CIMPR, M6P receptor plate binding assays", "value": "2 to 4", "unit": "nM"},
      {"measurement": "binding to CIMPR", "setting": "[4]; versus Lumizyme, FIG. 10A", "value": "bound to CIMPR significantly better than Lumizyme®"},
      {"measurement": "relative reduction of glycogen in quadriceps and triceps", "setting": "[5]; 20 mg/kg IV every other week, 4 injections, FIG. 13", "value": "greater reduction of glycogen than Lumizyme®"},
      {"measurement": "tissue glycogen depletion", "setting": "[5]; 5, 10, 20 mg/kg, two IV bolus administrations every other week", "value": "deplete tissue glycogen in acid α-glucosidase (Gaa) knockout mice in a dose-dependent fashion"},
      {"measurement": "reduction of glycogen levels in skeletal muscles", "setting": "[5]; ATB200 10 and 20 mg/kg vs Lumizyme 20 mg/kg", "value": "significantly better reduction of glycogen levels in skeletal muscles than Lumizyme®"},
      {"measurement": "percent hemolysis", "setting": "[6]; 300 μg/ml", "value": "−0.1", "unit": "%"},
      {"measurement": "percent hemolysis", "setting": "[6]; 600 μg/ml", "value": "−1.5", "unit": "%"},
      {"measurement": "percent hemolysis", "setting": "[6]; 1000 μg/ml", "value": "−1.5", "unit": "%"},
      {"measurement": "OD540 Without Blood", "setting": "[6]; Concentration 300 μg/mL", "value": 0.001},
      {"measurement": "OD540 With Blood", "setting": "[6]; Concentration 300 μg/mL", "value": 0.016},
      {"measurement": "% Hemolysis", "setting": "[6]; Concentration 300 μg/mL", "value": "−0.10", "unit": "%"},
      {"measurement": "OD540 Without Blood", "setting": "[6]; Concentration 600 μg/mL", "value": 0.002},
      {"measurement": "OD540 With Blood", "setting": "[6]; Concentration 600 μg/mL", "value": 0.003},
      {"measurement": "% Hemolysis", "setting": "[6]; Concentration 600 μg/mL", "value": "−1.52", "unit": "%"},
      {"measurement": "OD540 Without Blood", "setting": "[6]; Concentration 1000 μg/mL", "value": 0.003},
      {"measurement": "OD540 With Blood", "setting": "[6]; Concentration 1000 μg/mL", "value": 0.004},
      {"measurement": "% Hemolysis", "setting": "[6]; Concentration 1000 μg/mL", "value": "−1.52", "unit": "%"},
      {"measurement": "concentration that saturates cellular receptors", "setting": "[7]; 16-hr incubation", "value": "about 20 nM"},
      {"measurement": "internalization into normal and Pompe fibroblast cells", "setting": "[7]; versus Lumizyme", "value": "internalized to a greater degree than conventional Lumizyme® rhGAA"},
      {"measurement": "apparent plasma half-life (t1/2)", "setting": "[8]", "value": "~45", "unit": "min"},
      {"measurement": "lysosome proliferation (LAMP1)", "setting": "[9]; 20 mg/kg every other week, heart, diaphragm, soleus", "value": "reduction in lysosome proliferation in heart, diaphragm and skeletal muscle (soleus) tissue compared to conventional treatment with alglucosidase alfa"},
      {"measurement": "punctate glycogen levels (PAS)", "setting": "[9]; 20 mg/kg every other week, heart, soleus", "value": "reduction in punctate glycogen levels in heart and skeletal muscle (soleus) tissue compared to conventional treatment with alglucosidase alfa"},
      {"measurement": "number of vacuoles in muscle fiber in quadriceps", "setting": "[9]; 20 mg/kg, two IV bolus administrations", "value": "significantly reduced the number of vacuoles in muscle fiber in the quadriceps of Gaa knockout mice"},
      {"measurement": "intracellular accumulation of dystrophin", "setting": "[10]", "value": "lowered intracellular accumulation of dystrophin in Gaa KO mice"}
    ]}
  ]
}
